Laboratory results taken from patent publication US20250276077A1, “EPHA2 ANTIBODIES” (Immunome, Inc., priority 2022, published 2025).

System: A549 cells
Assay: ADCC (KILR target cells, NK92 CD16 chimera effector cells)
Assay type: cell-based, human
Conditions: A549 tumor cells; for ADCC - dAct rel. parent, Trial 1: Trial 1, relative to parent antibody; for ADCC - dAct rel. parent, Trial 2: Trial 2, relative to parent antibody
Experimental: To detect Antibody-dependent cellular cytotoxicity (ADCC), KILR™-transfected target cells were opsonized with different concentrations of the antibody at room temperature for 20 minutes. Following, NK92 cells carrying a mouse extracellular-human intracellular CD16 chimera were added at a 5:1 ratio of effector to target cells. After a 4 h co-culture at 37° C. and 5% CO2, pre-mixed KILR™ detection reagent was added to each well at equal volume and allowed to incubate for 30 min at room temperature in the dark before reading luminescence on a pate reader. Cytotoxicity was calculated after background (spontaneous release) subtraction and expressed as percent of a maximum lysis control.

B1: AB-010681: VH SEQ ID NO: 634, VL SEQ ID NO: 699; L29SY; L92SH relative to AB-010361 (antibody, V domains shown)
VH: QVQLQQWGAGLLKPSETLSLTCAVYGGSFSGYYWSWIRQPPGKGLEWIGEINHRGSINYNNYNPSLKSRVTISVDTSKNQFSLKLSSVTAADTAVYYCAKPLRPHCTNGVCYSGDAFDIWGQGTMVTVAS
VL: SYVLTQPPSVSVAPGQTARITCGGNNIGYKNVHWYQQKPGQAPVLVVYDDSDRPSGIPEQFSGSNSGNTATLTISRVEAGDEADYYCQVWDHSSDHVVFGGGTKLTVL
- EC50: ~8 pM
- ADCC - dAct rel. parent, Trial 1: 152.1%
- ADCC - dAct rel. parent, Trial 2: 104.6%

B2: AB-010673: VH SEQ ID NO: 626, VL SEQ ID NO: 691; L93SE relative to AB-010357 (antibody, V domains shown)
VH: QVQLQQWGAGLLKPSETLSLTCAVYGGSFSDYYWSWIRQPPGKGLEWIGEINHRGSINYNNYNPSLKSRVTISVDTSKNQFSLKLSSVTAADTAVYYCAKPLRPHCTNGVCYSGDAFDIWGQGTMVTVAS
VL: SYVLTQPPSVSVAPGQTARITCGGNNIGSKNVHWYQQKPGQAPVLVVYDDSDRPSGIPEQFSGSNSGNTATLTISRVEAGDEADYYCQVWDSESDHVVFGGGTKLTVL
- ADCC - dAct rel. parent, Trial 1: 166.4%

B3: AB-010684: VH SEQ ID NO: 637, VL SEQ ID NO: 702; H107TI; L92SH relative to AB-010361 (antibody, V domains shown)
VH: QVQLQQWGAGLLKPSETLSLTCAVYGGSFSGYYWSWIRQPPGKGLEWIGEINHRGSINYNNYNPSLKSRVTISVDTSKNQFSLKLSSVTAADTAVYYCAKPLRPHCINGVCYSGDAFDIWGQGTMVTVAS
VL: SYVLTQPPSVSVAPGQTARITCGGNNIGSKNVHWYQQKPGQAPVLVVYDDSDRPSGIPEQFSGSNSGNTATLTISRVEAGDEADYYCQVWDHSSDHVVFGGGTKLTVL
- ADCC - dAct rel. parent, Trial 1: 166.6%
- ADCC - dAct rel. parent, Trial 2: 115.4%

B4: AB-010664: VH SEQ ID NO: 617, VL SEQ ID NO: 682; L23GR; L92SH relative to AB-010357 (antibody, V domains shown)
VH: QVQLQQWGAGLLKPSETLSLTCAVYGGSFSDYYWSWIRQPPGKGLEWIGEINHRGSINYNNYNPSLKSRVTISVDTSKNQFSLKLSSVTAADTAVYYCAKPLRPHCTNGVCYSGDAFDIWGQGTMVTVAS
VL: SYVLTQPPSVSVAPGQTARITCRGNNIGSKNVHWYQQKPGQAPVLVVYDDSDRPSGIPEQFSGSNSGNTATLTISRVEAGDEADYYCQVWDHSSDHVVFGGGTKLTVL
- ADCC - dAct rel. parent, Trial 1: 167.7%

B5: AB-010672: VH SEQ ID NO: 625, VL SEQ ID NO: 690; L93SR relative to AB-010357 (antibody, V domains shown)
VH: QVQLQQWGAGLLKPSETLSLTCAVYGGSFSDYYWSWIRQPPGKGLEWIGEINHRGSINYNNYNPSLKSRVTISVDTSKNQFSLKLSSVTAADTAVYYCAKPLRPHCTNGVCYSGDAFDIWGQGTMVTVAS
VL: SYVLTQPPSVSVAPGQTARITCGGNNIGSKNVHWYQQKPGQAPVLVVYDDSDRPSGIPEQFSGSNSGNTATLTISRVEAGDEADYYCQVWDSRSDHVVFGGGTKLTVL
- ADCC - dAct rel. parent, Trial 1: 162.9%

B6: AB-010674: VH SEQ ID NO: 627, VL SEQ ID NO: 692; L29SY; L93SE relative to AB-010357 (antibody, V domains shown)
VH: QVQLQQWGAGLLKPSETLSLTCAVYGGSFSDYYWSWIRQPPGKGLEWIGEINHRGSINYNNYNPSLKSRVTISVDTSKNQFSLKLSSVTAADTAVYYCAKPLRPHCTNGVCYSGDAFDIWGQGTMVTVAS
VL: SYVLTQPPSVSVAPGQTARITCGGNNIGYKNVHWYQQKPGQAPVLVVYDDSDRPSGIPEQFSGSNSGNTATLTISRVEAGDEADYYCQVWDSESDHVVFGGGTKLTVL
- ADCC - dAct rel. parent, Trial 1: 171.2%
- ADCC - dAct rel. parent, Trial 2: 97.2%

B7: AB-010670: VH SEQ ID NO: 623, VL SEQ ID NO: 688; H107TI; L92SH relative to AB-010357 (antibody, V domains shown)
VH: QVQLQQWGAGLLKPSETLSLTCAVYGGSFSDYYWSWIRQPPGKGLEWIGEINHRGSINYNNYNPSLKSRVTISVDTSKNQFSLKLSSVTAADTAVYYCAKPLRPHCINGVCYSGDAFDIWGQGTMVTVAS
VL: SYVLTQPPSVSVAPGQTARITCGGNNIGSKNVHWYQQKPGQAPVLVVYDDSDRPSGIPEQFSGSNSGNTATLTISRVEAGDEADYYCQVWDHSSDHVVFGGGTKLTVL
- ADCC - dAct rel. parent, Trial 1: 178.2%

B8: AB-010683: VH SEQ ID NO: 636, VL SEQ ID NO: 701; L30KM; L92SH relative to AB-010361 (antibody, V domains shown)
VH: QVQLQQWGAGLLKPSETLSLTCAVYGGSFSGYYWSWIRQPPGKGLEWIGEINHRGSINYNNYNPSLKSRVTISVDTSKNQFSLKLSSVTAADTAVYYCAKPLRPHCTNGVCYSGDAFDIWGQGTMVTVAS
VL: SYVLTQPPSVSVAPGQTARITCGGNNIGSMNVHWYQQKPGQAPVLVVYDDSDRPSGIPEQFSGSNSGNTATLTISRVEAGDEADYYCQVWDHSSDHVVFGGGTKLTVL
- ADCC - dAct rel. parent, Trial 1: 174.8%
- ADCC - dAct rel. parent, Trial 2: 100.0%

B9: AB-010688: VH SEQ ID NO: 641, VL SEQ ID NO: 706; L29SY; L93SE relative to AB-010361 (antibody, V domains shown)
VH: QVQLQQWGAGLLKPSETLSLTCAVYGGSFSGYYWSWIRQPPGKGLEWIGEINHRGSINYNNYNPSLKSRVTISVDTSKNQFSLKLSSVTAADTAVYYCAKPLRPHCTNGVCYSGDAFDIWGQGTMVTVAS
VL: SYVLTQPPSVSVAPGQTARITCGGNNIGYKNVHWYQQKPGQAPVLVVYDDSDRPSGIPEQFSGSNSGNTATLTISRVEAGDEADYYCQVWDSESDHVVFGGGTKLTVL
- ADCC - dAct rel. parent, Trial 1: 129.9%
- ADCC - dAct rel. parent, Trial 2: 108.0%

B10: AB-010669: VH SEQ ID NO: 622, VL SEQ ID NO: 687; L30KM; L92SH relative to AB-010357 (antibody, V domains shown)
VH: QVQLQQWGAGLLKPSETLSLTCAVYGGSFSDYYWSWIRQPPGKGLEWIGEINHRGSINYNNYNPSLKSRVTISVDTSKNQFSLKLSSVTAADTAVYYCAKPLRPHCTNGVCYSGDAFDIWGQGTMVTVAS
VL: SYVLTQPPSVSVAPGQTARITCGGNNIGSMNVHWYQQKPGQAPVLVVYDDSDRPSGIPEQFSGSNSGNTATLTISRVEAGDEADYYCQVWDHSSDHVVFGGGTKLTVL
- ADCC - dAct rel. parent, Trial 1: 177.7%

B11: AB-010686: VH SEQ ID NO: 639, VL SEQ ID NO: 704; L93SR relative to AB-010361 (antibody, V domains shown)
VH: QVQLQQWGAGLLKPSETLSLTCAVYGGSFSGYYWSWIRQPPGKGLEWIGEINHRGSINYNNYNPSLKSRVTISVDTSKNQFSLKLSSVTAADTAVYYCAKPLRPHCTNGVCYSGDAFDIWGQGTMVTVAS
VL: SYVLTQPPSVSVAPGQTARITCGGNNIGSKNVHWYQQKPGQAPVLVVYDDSDRPSGIPEQFSGSNSGNTATLTISRVEAGDEADYYCQVWDSRSDHVVFGGGTKLTVL
- ADCC - dAct rel. parent, Trial 1: 132.3%

B12: AB-010667: VH SEQ ID NO: 620, VL SEQ ID NO: 685; L29SY; L92SH relative to AB-010357 (antibody, V domains shown)
VH: QVQLQQWGAGLLKPSETLSLTCAVYGGSFSDYYWSWIRQPPGKGLEWIGEINHRGSINYNNYNPSLKSRVTISVDTSKNQFSLKLSSVTAADTAVYYCAKPLRPHCTNGVCYSGDAFDIWGQGTMVTVAS
VL: SYVLTQPPSVSVAPGQTARITCGGNNIGYKNVHWYQQKPGQAPVLVVYDDSDRPSGIPEQFSGSNSGNTATLTISRVEAGDEADYYCQVWDHSSDHVVFGGGTKLTVL
- ADCC - dAct rel. parent, Trial 1: 154.8%
- ADCC - dAct rel. parent, Trial 2: 108.9%

B13: AB-010687: VH SEQ ID NO: 640, VL SEQ ID NO: 705; L93SE relative to AB-010361 (antibody, V domains shown)
VH: QVQLQQWGAGLLKPSETLSLTCAVYGGSFSGYYWSWIRQPPGKGLEWIGEINHRGSINYNNYNPSLKSRVTISVDTSKNQFSLKLSSVTAADTAVYYCAKPLRPHCTNGVCYSGDAFDIWGQGTMVTVAS
VL: SYVLTQPPSVSVAPGQTARITCGGNNIGSKNVHWYQQKPGQAPVLVVYDDSDRPSGIPEQFSGSNSGNTATLTISRVEAGDEADYYCQVWDSESDHVVFGGGTKLTVL
- ADCC - dAct rel. parent, Trial 1: 166.8%

B14: AB-010678: VH SEQ ID NO: 631, VL SEQ ID NO: 696; L23GR; L92SH relative to AB-010361 (antibody, V domains shown)
VH: QVQLQQWGAGLLKPSETLSLTCAVYGGSFSGYYWSWIRQPPGKGLEWIGEINHRGSINYNNYNPSLKSRVTISVDTSKNQFSLKLSSVTAADTAVYYCAKPLRPHCTNGVCYSGDAFDIWGQGTMVTVAS
VL: SYVLTQPPSVSVAPGQTARITCRGNNIGSKNVHWYQQKPGQAPVLVVYDDSDRPSGIPEQFSGSNSGNTATLTISRVEAGDEADYYCQVWDHSSDHVVFGGGTKLTVL
- ADCC - dAct rel. parent, Trial 1: 154.2%
- ADCC - dAct rel. parent, Trial 2: 93.9%
